Experimental data published in patent US10774132B2, “Ultralong complementarity determining regions and uses thereof” (THE SCRIPPS RESEARCH INSTITUTE, priority 2012, dated 2020).

How the values were obtained:
[1] = system: Mouse NFS-60 cells; experiment: Proliferation assay on mouse NFS-60 cells (AlamarBlue); assay type: cell-based; details: 72 hours
Protocol: Mouse NFS-60 cells were obtained from American Type Culture Collection (ATCC), VA, and cultured in RPMI-1640 medium supplemented with 10% fetal bovine serum (FBS), 0.05 mM 2-mercapoethanol and 62 ng/ml human macrophage colony stimulating factor (M-CSF). For proliferation assay, mouse NFS-60 cells were washed three times with RPMI-1640 medium and resuspended in RPMI-1640 medium with 10% FBS and 0.05 mM 2-mercapoethanol at a density of 1.5×10^5 cells/ml. In 96-well plates, 100 μl of cell suspension was added into each well, followed by the addition of varied concentrations of bGCSF, BLV1H12 antibody, and the immunoglobulin constructs described herein, Equal volume of PBS buffer was added into the control wells. The plates were incubated at 37° C. in a 5% CO2 incubator for 72 hours. Cells were then treated with AlamarBlue (Invitrogen) ( 1/10 volume of cell suspension) for 4 hours at 37° C. Fluorescence at 595 nm for each well was read to indicate the cell viability.

[2] = system: mice neutrophils; experiment: Neutrophil counts in mice, 10th day after injection; assay type: in vivo; details: blood stained and counted at the 10th day post-injection
Protocol: On the 10th day after injection of BLV1H12-bGCSF fusion antibodies into mice for PK study, blood samples were drawn from the mice and stained using the Diff Quick Staining Kit (Thermo Fisher Scientific, IL). Neutrophils and white blood cells were counted under microscope and the percentages of neutrophils were analyzed. FIGS. 12A-12B and Table 12 show proliferative activities of BLV1H12-bGCSF fusion antibodies on mice neutrophils that are blood stained and counted at the 10th day post-injection.

[3] = Pharmacokinetics in mice (ELISA of blood samples); assay type: in vivo; details: 70 μg injected, BALB/c mice
Protocol: For PK study in mice, 70 μg of the immunoglobulin constructs described herein were injected into 3 BALB/c mice per group. Blood samples were drawn from time 0 to 14 days with extended intervals and analyzed by ELISA using anti-human IgG Fc antibody with horseradish peroxidase (HRP) labeled (KPL) and anti-6×His antibody (“6×His” disclosed as SEQ ID NO: 511) with HRP labeled (Clontech). Data were normalized by taking maximal concentration at the first time point (30 min).

[4] = system: Human mPB CD34+ cells; experiment: Proliferative activity on human granulocyte progenitors (flow cytometry); assay type: cell-based; details: 7 days, flow cytometry
Protocol: Human mPB CD34^+ cells were purchased from AllCells. Cells were resuspended in HSC expansion medium (StemSpan SFEM, StemCell Technologies) supplemented with 1× antibiotics and the following recombinant human cytokines: thrombopoietin, IL6, Flt3 ligand, and stem cell factor (100 ng/mL, R & D Systems), then plated in 96-well plates (1000 cells per well), with varied concentrations of BLV1H12-bGCSF fusion antibodies. Cells were cultured for 7 days at 37° C. in a 5% CO2 incubator, then analyzed by flow cytometry to measure cell number and expression of CD45ra and CD41. Cells were stained in staining medium (HBSS supplemented with 2% FBS and 2 mM EDTA) at 4° C. for 1 h with PECy7 anti-CD45ra and eFluor 450 anti-CD41 (eBiosciences), then washed with staining medium and analyzed. Multicolor analysis for cell phenotyping was performed on a LSR II flow cytometer (Becton Dickinson). FIGS. 10A-10E and Tables 9-10 show the human granulocyte progenitor cell proliferative activities of the Ab-GCSF fusion antibodies.

[5] = target: T1, CXCR1 (Homo sapiens, UniProt P25024); experiment: Flow cytometry binding to CXCR1-U2OS cells
T1 construct: host or cells: U2OS
T1 sequence (P25024 1-350): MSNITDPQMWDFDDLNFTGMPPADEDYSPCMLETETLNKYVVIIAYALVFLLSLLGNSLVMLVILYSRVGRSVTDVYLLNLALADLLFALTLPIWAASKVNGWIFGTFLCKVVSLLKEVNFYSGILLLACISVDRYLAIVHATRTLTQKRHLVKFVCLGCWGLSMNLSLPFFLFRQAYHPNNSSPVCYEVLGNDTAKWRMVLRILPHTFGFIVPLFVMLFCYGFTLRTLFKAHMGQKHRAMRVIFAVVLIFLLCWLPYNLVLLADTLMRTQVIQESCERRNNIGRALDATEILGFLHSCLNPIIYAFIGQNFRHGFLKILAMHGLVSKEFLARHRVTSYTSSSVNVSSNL
Protocol: (§1) Briefly, a cell line expressing functionally validated CXCR1 derived from U2OS cells was obtained from DiscoveRx and cultured per manufacturer's instructions (Cat #93-0226C3, DiscoveRx Corporation, Freemont, Calif.). The parental cell line U2OS was obtained from ATCC and cultured under the same conditions as the CXCR1 cells. Cell culture supernatants from Example 2 above were then tested for binding to cells by flow cytometry. The adherent U2OS or CXCR1-U2OS cells were dissociated with Accutase (Innovative Cell Technologies, Inc., San Diego, Calif.), neutralized with an equal volume of media containing 10% serum, centrifuged at 1000 g, and resuspended in PBS with 2% BSA. Next, cells were dispensed into microtiter plates to achieve between 30,000 to 300,000 cells per well, centrifuged again, and resuspended in cell culture supernatant containing expressed IgG, or a dilution of IgG-containing cell culture supernatant. A fluorescent-conjugated anti-Human Fc antibody was used to detect binding of the expressed BLV1H12-IL8 fusion proteins to cells.

[6] = system: Parental U2OS; experiment: Flow cytometry binding to parental U2OS cells; details: cell culture supernatant
Protocol: as §1

[7] = system: NS2-3 non-structural proteins of BVDV; experiment: Immunocytometric analysis of HEK 293A cells transfected with BVDV antigens; assay type: binding, bovine viral diarrhea virus; details: 10 μg/ml antibody
Protocol: (§2) Additionally, binding of the chimeric recombinant antibodies to BVDV antigens was evaluated by immunocytometric analysis of transfected human embryonic kidney (HEK) 293A cells (Invitrogen), as previously described (see, e.g., Njongmeta et al. (2012) Vaccine 30:1624-1635). Briefly, HEK 293A monolayers grown in 6-well tissue culture plates were transfected with 2 µg/well of plasmid (pCDNA3.3, Invitrogen) encoding BVDV antigens (N^pro, E2, or non-structural proteins NS2-3) using Lipofectamine 2000 reagent (Invitrogen), and incubated for 48 hr at 37° C. with 5% CO2. The monolayers were fixed with ice-cold 100% methanol for 10 minutes, rinsed with PBS, and after blocking for 1 hr with PBS containing 5% fetal bovine serum (blocking buffer), the monolayers were incubated at room temperature for 1 hr with 10 μg/ml of a mouse anti-FLAG M2-alkaline phosphatase (AP)-conjugate (Sigma) in blocking buffer or 10 μg/ml of the chimeric recombinant antibodies (H12 or B8). […] Following washes in blocking buffer, the AP activity in all the wells was detected using Fast Red AS-MX substrate (Sigma). […]

[8] = system: untransfected HEK293A cells; experiment: Immunocytometric analysis, untransfected HEK293A cells; assay type: binding, human; details: 10 μg/ml antibody
Protocol: as §2

B1: bGCSF: bovine G-CSF (protein, listed as Bos taurus)
chain: TPLGPARSLPQSFLLKCLEQVRKIQADGAELQERLCAAHKLCHPEELMLLRHSLGIPQAPLSSCSSQSLQLTSCLNQLHGGLFLYQGLLQALAGISPELAPTLDTLQLDVTDFATNIWLQMEDLGAAPAVQPTQGAMPTFTSAFQRRAGGVLVASQLHRFLELAYRGLRYLAEP
modifications: bGCSF
notes: bovine G-CSF
F.I. (fluorescence at 595 nm, AlamarBlue, cell viability) ([1]; 0.09145 ng/mL): 1214
F.I. (fluorescence at 595 nm, AlamarBlue, cell viability) ([1]; 0.27435 ng/mL): 1360.925
F.I. (fluorescence at 595 nm, AlamarBlue, cell viability) ([1]; 0.82305 ng/mL): 1761
F.I. (fluorescence at 595 nm, AlamarBlue, cell viability) ([1]; 2.46914 ng/mL): 2101
F.I. (fluorescence at 595 nm, AlamarBlue, cell viability) ([1]; 7.40741 ng/mL): 2405
F.I. (fluorescence at 595 nm, AlamarBlue, cell viability) ([1]; 22.22222 ng/mL): 2646
F.I. (fluorescence at 595 nm, AlamarBlue, cell viability) ([1]; 66.66667 ng/mL): 2812.098
F.I. (fluorescence at 595 nm, AlamarBlue, cell viability) ([1]; 200 ng/mL): 3087.144
Percentage of Neutrophil [2]: 16.48
Percentage (blood level normalized to first time point, 30 min) ([3]; 0.5 hour): 100.00%
Percentage (blood level normalized to first time point, 30 min) ([3]; 1 hour): 79.52%
Percentage (blood level normalized to first time point, 30 min) ([3]; 3 hour): 56.81%
Percentage (blood level normalized to first time point, 30 min) ([3]; 6 hour): 14.94%
Percentage (blood level normalized to first time point, 30 min) ([3]; 24 hour): 4.08%
Percentage (blood level normalized to first time point, 30 min) ([3]; 48 hour): 0.00%
Percentage (blood level normalized to first time point, 30 min) ([3]; 72 hour): 0.00%
Number of CD45RA-CD41- ([4]; 0.55886 ng/mL): 7354
Number of CD45RA-CD41- ([4]; 1.67657 ng/mL): 9776
Number of CD45RA-CD41- ([4]; 5.02972 ng/mL): 12700
Number of CD45RA-CD41- ([4]; 15.08916 ng/mL): 13200
Number of CD45RA-CD41- ([4]; 45.26749 ng/mL): 13700
Number of CD45RA-CD41- ([4]; 135.80247 ng/mL): 13300
Number of CD45RA-CD41- ([4]; 407.40741 ng/mL): 13700
Number of CD45RA-CD41- ([4]; 1222.22222 ng/mL): 14100
Number of CD45RA-CD41- ([4]; 3666.66667 ng/mL): 13100
Number of CD45RA-CD41- ([4]; 11000 ng/mL): 13800

B2: BLV1H12-IL8: human IL-8 (amino acids 26-99) replacing the knob domain of BLV1H12 CDR3H, SEQ ID NO: 38 (antibody)
heavy: QVQLRESGPSLVKPSQTLSLTCTASGFSLSDKAVGWVRQAPGKALEWLGSIDTGGNTGYNPGLKSRLSITKDNSKSQVSLSVSSVTTEDSATYYCTSVHQETKKYQSPRSAKELRCQCIKTYSKPFHPKFIKELRVIESGPHCANTEIIVKLSDGRELCLDPKENWVQRVVEKFLKRAENSGSGSYTYNYEWHVDVWGQGLLVTV
specificity (ratio of median fluorescence of CXCR1-U2OS cells versus U2OS parental cells) [5]: has specificity for CXCR1
Median Arbitrary Fluorescence Units (IgG binding) ([5]; CXCR1-U2OS cells, cell culture supernatant, flow cytometry): 707 AFU
Median Arbitrary Fluorescence Units (IgG binding) [6]: 76 AFU

B3: hGCSF: human G-CSF (protein, UniProt P09919 31-207, looked up)
Granulocyte …: TPLGPASSLPQSFLLKCLEQVRKIQGDGAALQEKLVSECATYKLCHPEELVLLGHSLGIPWAPLSSCPSQALQLAGCLSQLHSGLFLYQGLLQALEGISPELGPTLDTLQLDVADFATTIWQQMEELGMAPALQPTQGAMPAFASAFQRRAGGVLVASHLQSFLEVSYRVLRHLAQP
F.I. (fluorescence at 595 nm, AlamarBlue, cell viability) ([1]; 0.09145 ng/mL): 1266.554
F.I. (fluorescence at 595 nm, AlamarBlue, cell viability) ([1]; 0.27435 ng/mL): 1478.287
F.I. (fluorescence at 595 nm, AlamarBlue, cell viability) ([1]; 0.82305 ng/mL): 1752.216
F.I. (fluorescence at 595 nm, AlamarBlue, cell viability) ([1]; 2.46914 ng/mL): 2224.028
F.I. (fluorescence at 595 nm, AlamarBlue, cell viability) ([1]; 7.40741 ng/mL): 2587.222
F.I. (fluorescence at 595 nm, AlamarBlue, cell viability) ([1]; 22.22222 ng/mL): 2751.249
F.I. (fluorescence at 595 nm, AlamarBlue, cell viability) ([1]; 66.66667 ng/mL): 2815.37
F.I. (fluorescence at 595 nm, AlamarBlue, cell viability) ([1]; 200 ng/mL): 2948.509
Number of CD45RA-CD41- ([4]; 4.11523 ng/mL): 5900

B4: H12 (protein, listed as Bos taurus)
chain: CVIVHQKTTQQSSCPAGFRDCVACTPGPESCCRSGCDGARRRVGLRYFFDSTSPITTYTYEHHIDAW
modifications: H12
binding to HEK293A cells transfected with NS2-3 of BVDV [7]: strongly binds
binding to untransfected cells [8]: weakly bound
